This note sets out measurements from paper PMC7159904.

This experiment has as its target Dispatched-yellow fluorescent protein (YFP) (D. melanogaster) (UniProt Q9VNJ5). Description: MST.

By Kd is commonly meant the concentration at which binding is half-saturated. A lower Kd goes with higher affinity.

Chain of UniProt Q9VNJ5 (Q9VNJ5 whole entry): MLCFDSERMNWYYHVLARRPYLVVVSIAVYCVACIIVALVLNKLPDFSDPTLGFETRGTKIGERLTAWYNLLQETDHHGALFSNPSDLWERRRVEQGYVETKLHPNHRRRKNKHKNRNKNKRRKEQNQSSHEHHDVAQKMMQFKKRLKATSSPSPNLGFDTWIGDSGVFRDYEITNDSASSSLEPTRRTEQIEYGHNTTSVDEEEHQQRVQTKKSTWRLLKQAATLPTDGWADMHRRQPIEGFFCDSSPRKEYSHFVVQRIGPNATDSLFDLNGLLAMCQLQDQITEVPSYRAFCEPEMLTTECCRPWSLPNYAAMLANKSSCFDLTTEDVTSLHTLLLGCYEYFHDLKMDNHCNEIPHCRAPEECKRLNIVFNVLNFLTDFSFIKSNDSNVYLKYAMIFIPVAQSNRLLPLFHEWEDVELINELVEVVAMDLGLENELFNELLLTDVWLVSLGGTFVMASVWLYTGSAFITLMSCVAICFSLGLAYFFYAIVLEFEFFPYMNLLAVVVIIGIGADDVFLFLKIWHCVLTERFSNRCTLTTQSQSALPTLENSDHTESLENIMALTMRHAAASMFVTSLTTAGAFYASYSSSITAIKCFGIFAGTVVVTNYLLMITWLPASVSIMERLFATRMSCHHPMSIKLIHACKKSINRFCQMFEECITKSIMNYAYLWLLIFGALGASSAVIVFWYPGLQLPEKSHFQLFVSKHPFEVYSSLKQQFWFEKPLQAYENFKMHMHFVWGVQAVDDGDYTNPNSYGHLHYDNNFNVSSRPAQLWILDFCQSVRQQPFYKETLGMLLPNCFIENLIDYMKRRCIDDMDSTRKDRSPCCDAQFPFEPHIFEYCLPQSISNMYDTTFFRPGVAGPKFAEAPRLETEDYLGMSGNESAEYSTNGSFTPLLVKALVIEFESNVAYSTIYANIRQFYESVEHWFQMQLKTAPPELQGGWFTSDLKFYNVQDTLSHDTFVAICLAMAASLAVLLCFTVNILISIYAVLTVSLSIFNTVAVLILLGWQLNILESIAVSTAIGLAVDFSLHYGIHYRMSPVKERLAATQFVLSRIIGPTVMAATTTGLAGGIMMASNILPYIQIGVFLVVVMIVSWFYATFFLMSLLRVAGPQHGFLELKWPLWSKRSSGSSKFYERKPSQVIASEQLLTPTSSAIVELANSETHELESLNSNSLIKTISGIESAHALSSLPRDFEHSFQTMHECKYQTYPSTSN

For the substance “modified D. melanogaster hedgehog N-terminal fragment HhN_(C85II) (from UniProt Q02936 85-257) (ligand)”, the dissociation constant Kd came out at 6.2 µM.
